Results as given in publication PMC3268006 (Journal of Molecular Biology, 2011).

B1: Fab S4 (Fab, V domains shown)
VH: EVQLVQSGAEVKKPGSSVKVSCKASGGTFSSYAISWVRQAGQGLEWMGGIIPIFGTANYAQKFQGRVTITADESTSTAYMELSSLRSEDTAVYYCARTFHIRRYRSGYYDKMDHWGQGTLVTVSS
VL: VLTQPPSVSGAPGQRVTISCSGSSSNIGSNYVSWYQQKPGTAPKLLIYDNNQRPSGVPDRFSGSKSGTSAVLAITGLQSEDEADYYCQSRDISQYVFGGGTKLTVL
B2: Fab S4 H R100bK (Fab, V domains shown)
VH: EVQLVQSGAEVKKPGSSVKVSCKASGGTFSSYAISWVRQAGQGLEWMGGIIPIFGTANYAQKFQGRVTITADESTSTAYMELSSLRSEDTAVYYCARTFHIRRYKSGYYDKMDHWGQGTLVTVSS
VL: VLTQPPSVSGAPGQRVTISCSGSSSNIGSNYVSWYQQKPGTAPKLLIYDNNQRPSGVPDRFSGSKSGTSAVLAITGLQSEDEADYYCQSRDISQYVFGGGTKLTVL
B3: Fab S4 H R100bA (Fab, V domains shown)
VH: EVQLVQSGAEVKKPGSSVKVSCKASGGTFSSYAISWVRQAGQGLEWMGGIIPIFGTANYAQKFQGRVTITADESTSTAYMELSSLRSEDTAVYYCARTFHIRRYASGYYDKMDHWGQGTLVTVSS
VL: VLTQPPSVSGAPGQRVTISCSGSSSNIGSNYVSWYQQKPGTAPKLLIYDNNQRPSGVPDRFSGSKSGTSAVLAITGLQSEDEADYYCQSRDISQYVFGGGTKLTVL
B4: Fab A11 H R100aA (Fab, V domains shown)
VH: EVQLVQSGGGLVKPGGSLRLSCAASGFTFSSYAMSWVRQAPGKGLEWVSAISGSGGSTYYADSVKGRFTISRDNSKNTLYLQMSSLRAEDTAVYYCVKDLGIAAARFVSGAFDIWGQGTMVTVSS
VL: EIVLTQSPGTLSLSPGERATLSCRASQSVSSSYLAWYQQKPGQAPRLLIYGASTRATGIPARFSGSGSGTDFTLTINSLEPEDFAVYYCQQRSNWPPGYTFGQGTKVEIT
B5: Fab A11 H R100bA (Fab, V domains shown)
VH: EVQLVQSGGGLVKPGGSLRLSCAASGFTFSSYAMSWVRQAPGKGLEWVSAISGSGGSTYYADSVKGRFTISRDNSKNTLYLQMSSLRAEDTAVYYCVKDLGIAARAFVSGAFDIWGQGTMVTVSS
VL: EIVLTQSPGTLSLSPGERATLSCRASQSVSSSYLAWYQQKPGQAPRLLIYGASTRATGIPARFSGSGSGTDFTLTINSLEPEDFAVYYCQQRSNWPPGYTFGQGTKVEIT
B6: Fab A11 H R100bK (Fab, V domains shown)
VH: EVQLVQSGGGLVKPGGSLRLSCAASGFTFSSYAMSWVRQAPGKGLEWVSAISGSGGSTYYADSVKGRFTISRDNSKNTLYLQMSSLRAEDTAVYYCVKDLGIAARKFVSGAFDIWGQGTMVTVSS
VL: EIVLTQSPGTLSLSPGERATLSCRASQSVSSSYLAWYQQKPGQAPRLLIYGASTRATGIPARFSGSGSGTDFTLTINSLEPEDFAVYYCQQRSNWPPGYTFGQGTKVEIT

Target: matriptase (MT-SP1), human protease domain (human, UniProt Q9Y5Y6)
Sequence (Q9Y5Y6 615-855): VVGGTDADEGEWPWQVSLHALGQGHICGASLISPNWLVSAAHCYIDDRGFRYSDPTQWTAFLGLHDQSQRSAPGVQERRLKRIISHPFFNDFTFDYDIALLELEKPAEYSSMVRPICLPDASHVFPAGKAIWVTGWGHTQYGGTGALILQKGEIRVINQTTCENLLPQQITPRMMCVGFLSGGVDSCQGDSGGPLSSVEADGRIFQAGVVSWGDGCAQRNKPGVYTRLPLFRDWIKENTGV
Assay: steady-state enzyme inhibition kinetics

Going from B1 to B2, the Ki rises from 1 nM to 110 nM (110-fold). The first binds more tightly here.

First: B3
Second: B4
The Ki of the first is 62-fold higher: 93 nM for the first, 1.5 nM for the second.

B5 and B6 are the same in Ki: 180 nM for the first, 180 nM for the second.
